The values below come from paper PMC9817077, “Simple, Reliable Protocol for High-Yield Solubilization of Seedless Amyloid-β Monomer” (ACS Chemical Neuroscience, 2022).

A short description of series [1]: Thioflavin T (ThT) self-assembly (fibrillization) kinetics assay. Type of series: physicochemical. The protocol:
Peptide was prepared using either of the aforementioned protocols, with or without HFIP pretreatment, and self-assembly was initiated by rapid dilution into the fibrillization buffer to a final concentration of 1–10 μM peptide. […] The success of this strategy was confirmed empirically.
Self-assembly experiments were carried out in a 20 mM sodium phosphate buffer (pH 8) containing 200 μM EDTA, 1 mM NaN3, and 20 μM ThT. […] Correction can be carried out before or after this addition. However, if correction is carried out after the peptide has been added to the buffer stock, the peptide will already have begun to aggregate so that the delay could influence the results. In addition, adding acid to lower the pH would modify the buffer composition and increase the ionic strength from its intended value. As a better alternative, one can correct the pH in advance, by preparing a buffer stock that is more acidic than the final intended solution but reliably reaches the correct pH following the addition of a known quantity of NaOH and Aβ(1-42). Note that this correction is only necessary when preparing Aβ(1-42) solutions by direct addition of the peptide from NaOH stock and is not necessary when exchanging the peptide into the correct buffer by SEC.
The ratio of NaH2PO4 and Na2HPO4 in the 5× buffer stock was chosen to give the correct pH when mixed with the NaOH and other buffer constituents, and was initially based on calculation and subsequently optimized experimentally. The final intended quantities of H2PO4^– and HPO4^2– can be calculated from the Henderson-Hasselbalch eq.[97] Given an acid dissociation constant K2 ≈ 6.94 at the ionic strength of the self-assembly buffer,[98] one expects the final self-assembly buffer to contain approximately 1.6 mM H2PO4^– and 18.4 mM HPO4^2–. When NaOH is added to phosphate buffer, most of the hydroxide is consumed in the reaction OH^– + H2PO4^– → H2O + HPO4^2–. Therefore, if 10 mM NaOH is incorporated into the final buffer at 10% of the final volume, 1 mM H2PO4^– will be converted to 1 mM HPO4^2–. Thus, to achieve the correct final ratio of phosphate ions, the 5× buffer stock will need to contain 5 × (1.6 + 1.0) mM = 13 mM NaH2PO4 and 5 × (18.4 – 1.0) mM = 87 mM Na2HPO4. Similarly, if 50 mM NaOH is used, the 5× buffer stock will need to contain 5 × (1.6 + 5.0) mM = 33 mM NaH2PO4 and 5 × (18.4 – 5.0) mM = 67 mM Na2HPO4. In practice, these calculations were used to inform preparation of a test buffer stock, which was then used to prepare a test self-assembly buffer using the ratios described above. If the pH of this test solution was outside the 7.98–8.02 range, a new test buffer stock was prepared with a modified composition. […]

The conditions of series [2]: fluorescence-based assays, cited from earlier work. How it is done:
Aβ samples that are stored in a lyophilized form are often re-solubilized by treatment with a dilute base such as 1–10 mM NaOH or 0.02–1% NH4OH.[41],[46],[48],[53],[56],[57] These treatments would be expected to give a pH of 10.6–12.0, in the absence of any partial neutralization of the solvent. […] In addition, many st ...

With “Aβ(1-42): Ultrapure recombinant Aβ(1-42) purchased from rPeptide, lyophilized from HFIP; disordered amyloid-forming peptide”, in series [1] (50 mM NaOH samples, 4 μM peptide, 20 mM sodium phosphate pH 8, 37 °C, mean), the “initial ThT fluorescence” value is 2.2 % of final fluorescence. In series [1] (commercial recombinant samples solubilized in 50 mM NaOH, 20 mM sodium phosphate pH 8, 37 °C, concentration not given), the “fibrillization half-time τhalf” value is on record as 7700 ± 380 s. Besides, the “scaling exponent γ” value in series [1] (commercial recombinant, 5 min sonication in 50 mM NaOH (sample 50-5-N-13), fit of mean half-times 1.5–4.0 μM, 20 mM sodium phosphate pH 8, 37 °C) is on record as −1.32. Also, the “scaling exponent γ (slope of half-time vs Aβ(1-42) concentration, double-logarithmic)” value in series [1] (re-solubilized in 10 mM NaOH with or without HFIP pretreatment, 1–5 μM peptide, 20 mM sodium phosphate pH 8.0, 200 μM EDTA, 1 mM NaN3, 20 μM ThT, 37 °C, average, SD 0.24 across 9 peptide samples) is reported as −1.04. Further, the “pH threshold for complete elimination of self-assembly” value in series [2] is recorded as 11.0–12.0 pH. In addition, the “approximate timescale of limited aggregation” value in series [2] (pH 11.0) is on record as “several hundred seconds”.
